# Measurements published in US10590192B2, “Midkine antibody” (Cellmid Limited, priority 2014, dated 2020).
# Positions count from the first letter of the chain named. Entries after “also recorded” stand apart in the source; their conditions may differ.
# T1: human midkine protein (Homo sapiens, UniProt P21741)
# T1 construct: human MK cDNAs comprising the MK coding region flanked by EcoRI restriction sites; made in house; host or cells: Pichia pastoris GS115 (clone T3L-50-4P), secreted into culture supernatant
# T1 sequence (P21741 21-143): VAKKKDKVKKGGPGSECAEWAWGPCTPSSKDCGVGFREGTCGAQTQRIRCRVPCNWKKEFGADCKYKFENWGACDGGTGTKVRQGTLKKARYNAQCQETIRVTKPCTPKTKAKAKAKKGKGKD
# T2: recombinant human MK (huMK) (Homo sapiens, UniProt P21741)
# T2 sequence (P21741 21-143): T1 sequence (P21741 21-143)
# T3: murine MK (muMK) (Mus musculus, UniProt P12025)
# T3 sequence (P12025 23-140): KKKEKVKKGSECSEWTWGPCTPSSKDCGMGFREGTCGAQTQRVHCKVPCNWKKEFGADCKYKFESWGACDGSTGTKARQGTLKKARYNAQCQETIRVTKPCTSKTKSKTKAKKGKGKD
# B1: IP14-H5L8: humanised IP14 antibody: VH SEQ ID NO: 6, VL SEQ ID NO: 17 (antibody, V domains shown)
# VH: QVQLVQSGGGLVQPGGSLRLSCAASGQSFSSYWMNWVRQAPGQGLEWIGMIHPSDSETILNQKFKDKATLTVDISKNTAYLQMNSLRAEDTAVYYCSSWSAKRGDFWGQGTLVTVSS
# VL: DIVLTQSPATLSLSPGERATLSCRASESISNNLHWYQQKPHQAPRLLIYYASQSISGVPARFSGSGSGTDFTLTISSVEPEDFAVYYCQQSNSWPLTFGQGTKVEIKR
# modifications: Variable region heavy chain humanised variant 5 (VH5); Variable region light chain humanised variant 8 (VL8)
# B2: IP14-H6L8: humanised IP14 antibody: VH SEQ ID NO: 7, VL SEQ ID NO: 17 (antibody, V domains shown)
# VH: B1 VH with Q13K, G16H, Q43K, T71S, S75A, T78S
# VL: B1 VL
# modifications: Variable region heavy chain humanised variant 6 (VH6); Variable region light chain humanised variant 8 (VL8)
# B3: IP14-H6L3: humanised IP14 antibody: VH SEQ ID NO: 7, VL SEQ ID NO: 12 (antibody, V domains shown)
# VH: B1 VH with Q13K, G16H, Q43K, T71S, S75A, T78S
# VL: B1 VL with H41G, V58I, S67P, V78L, Q100G, V104L
# modifications: Variable region heavy chain humanised variant 6 (VH6); Variable region light chain humanised variant 3 (VL3)
# B4: IP14-H4L4: humanised IP14 antibody: VH SEQ ID NO: 5, VL SEQ ID NO: 13 (antibody, V domains shown)
# VH: QVQLVQSGAEVKKPGASVKVSCKASGYTFTSYYMHWVRQAPGQGLEWMGIIHPSGGSTSYAQKFQGRVTMTRDTSTSTVYMELSSLRSEDTAVYYCARWSAKRGDFWGQGTLVTVSS
# VL: EIVLTQSPDFQSVTPKEKVNITCRASESISNNLHWYQQKPHQSPKLLIYYASQSISGVPSRFSGSGSGTDFNLTINSVEAEDAATYYCQQSNSWPLTFGGGTKLEIKR
# modifications: Variable region heavy chain humanised variant 4 (VH4); Variable region light chain humanised variant 4 (VL4)
# B5: IP14-H4L5: humanised IP14 antibody: VH SEQ ID NO: 5, VL SEQ ID NO: 14 (antibody, V domains shown)
# VH: B4 VH
# VL: EIVLTQSPATLSLSPGERATLSCRASQGVSSNLAWYQQKPGQAPRLLIYDASNRATGIPARFSGSGPGTDFTLTISSLEPEDFAVYYCQQSNSWPLTFGQGTKVEIKR
# modifications: Variable region heavy chain humanised variant 4 (VH4); Variable region light chain humanised variant 5 (VL5)
# B6: IP14-H4L6: humanised IP14 antibody: VH SEQ ID NO: 5, VL SEQ ID NO: 15 (antibody, V domains shown)
# VH: B4 VH
# VL: EIVLTQSPSTLSASVGDRVNITCRASESISNNLHWYQQKPHKAPKLLIYYASQSISGVPSRFSGSGSGTEFNLTISSVQPDDFATYYCQQSNSWPLTFGQGTKVEIKR
# modifications: Variable region heavy chain humanised variant 4 (VH4); Variable region light chain humanised variant 6 (VL6)
# B7: IP14-H4L8: humanised IP14 antibody: VH SEQ ID NO: 5, VL SEQ ID NO: 17 (antibody, V domains shown)
# VH: B4 VH
# VL: B1 VL
# modifications: Variable region heavy chain humanised variant 4 (VH4); Variable region light chain humanised variant 8 (VL8)
# B8: IP14-H4L7: humanised IP14 antibody: VH SEQ ID NO: 5, VL SEQ ID NO: 16 (antibody, V domains shown)
# VH: B4 VH
# VL: B1 VL with T20N, T72N
# modifications: Variable region heavy chain humanised variant 4 (VH4); Variable region light chain humanised variant 7 (VL7)
# Molecular target: T1, human midkine protein
# Assay: UMR106 cell migration inhibition assay (modified Boyden chamber)
# Format: cell-based, rat
# Details: comparison in words
# Description: Cell migration assays were performed for each of the preferred candidate humanised IP14 antibodies and the murine IP14 parent antibody to determine the ability of these antibodies to inhibit migration of UMR106 cells to midkine.
# The UMR-106 rat osteosarcoma cell line was originally obtained from the American Type Culture Collection, PO Box 1549, Manassas, Va., USA as a frozen stock (catalog no. CRL-1661; batch no. 58494148).
# The cells were maintained in: DMEM+Glutamax (DMEM, catalog no. 10569-010 500 mL, lot. no. 778325, Invitrogen/Gibco) supplemented with the following items: Penicillin (10,000 U/mL stock concentration)—Streptomycin (10,000 μg/mL stock concentration) (catalog no. 15140-122 100 mL, lot no. 730849, Invitrogen/Gibco) at a rate of 1 mL/200 mL of DMEM 10% fetal bovine serum (FBS, catalog no. 100099-141, lot no. 6955347Y, Invitrogen/Gibco). The DEM+Glutamax media containing 50 U/mL penicillin, 50 μg/mL streptomycin and 10% FBS is identified as Complete media in this report. The 10% FBS was replaced by 0.3% (w/v) bovine serum albumin (BSA) for the cell migration assays. The BSA was supplied by Sigma-Aldrich, catalog no. A-3192, lot no. 31K1264 and was formulated as a 15% (w/v) stock solution in D-PBS which was sterilized by passage through a 0.22 micron filter and stored at −20° C. prior to use. The cell cultures were maintained in T75 tissue culture-treated flasks in a humidified incubator at approximately 37° C. and 5% carbon dioxide. Cells were sub-cultured twice weekly at a sub-culture ratio ranging from approximately 1:8 to 1:20. Cells were dissociated from the flask by rinsing once with Dulbecco's phosphate buffered saline (DPBS, catalog no. 14190, lot no. 783715, Invitrogen/Gibco) and then incubated with 0.25% Trypsin-EDTA solution (Invitrogen/Gibco) at 37° C. for 2-5 minutes. The cells were then removed by addition of approximately 10 mL of Complete media. The experiments were completed using UMR-106 cells at ˜50 to 75% confluency on the day prior to assay. These cultures were washed once with DMEM and cultured overnight in DMEM containing 0.5% FBS. […]
row,Molecule,inhibition of UMR-106 cell migration compared with murine IP14 precursor antibody
1,B1,more effective; also recorded: greater efficacy
2,B2,more effective; also recorded: greater efficacy
3,B3,more effective; also recorded: greater efficacy

# Molecular target: T2, recombinant human MK (huMK)
# Assay: ELISA binding of humanised anti-MK antibodies to huMK
# Details: ELISA, plates coated with 2 ug/mL huMK; read-out: Binding affinity for huMK, ELISA EC50
# Description: (§1) The binding specificity and affinity of the humanised anti-MK antibodies to recombinant human MK (huMK) and murine MK (muMK) was assessed by ELISA. ELISA plates (Nunc Immuno MaxiSorp 96 well flat-bottom were coated with 100 uL of 2 ug/mL of either huMK or muMK in 2% BSA/PBS (overnight at room temperature). After washing, blocking (1 h at 37° C.), and washing again, the humanised anti-MK and chimeric antibodies described in Example 1 were analysed for binding to huMK or muMK at concentrations ranging between 3 μg/ml and 0.00004 μg/ml in 2% BSA/PBS (1 h at 37° C.). After washing, the binding of antibody was detected with goat anti-mouse IgG (Fab specific)-HRP conjugate (Sigma, Cat. No. A9917) and SigmaFast OPD substrate (Sigma, Cat. No. P9187). The reaction was stopped with 3 M HCl, absorbance read at 490 nm on a Dynex Technologies MRX TC II plate reader and the binding curves plotted. Binding affinity data for the humanised anti-MK antibodies to huMK and muMK are presented in Table 6 and Table 7 respectively, and in FIG. 3.
# (§2) KD values for hIP14-H5L8, hIP14-H6L3 and hIP14-H6L8 was then compared with the KD values obtained for the corresponding murine IP14 precursor antibody and the chimeric antibody using the methods described in Example 2. […] Based on this finding, these candidate antibodies were produced to 100 mg scale to enable further testing in functional assays to determine biological function.
row,EC50,Molecule
1,> 10 nM,B4
2,> 10 nM,B5
3,> 10 nM,B6
4,> 10 nM,B7
5,> 10 nM,B8

# Same assay, conditions: comparison in words
row,binding affinity for huMK compared with murine IP14 precursor antibody,Molecule
1,better binding affinity,B1
2,better binding affinity,B2
3,better binding affinity,B3

# Molecular target: T3, murine MK (muMK)
# Assay: ELISA binding of humanised anti-MK antibodies to muMK
# Details: ELISA, plates coated with 2 ug/mL muMK; read-out: Binding affinity for muMK, ELISA EC50
# Description: as §1, §2
row,EC50,Molecule
1,> 10 nM,B4
2,> 10 nM,B5
3,> 10 nM,B6
4,> 10 nM,B7
5,> 10 nM,B8

# Same assay, conditions: comparison in words
row,binding affinity for muMK compared with murine IP14 precursor antibody and chimeric antibody,Molecule
1,better binding affinity,B1
2,better binding affinity,B2
3,better binding affinity,B3
